T1: human IL-23 (Sino Biological, CT048-H08H) (human, UniProt Q9NPF7 20-189; P29460 23-328)
T1 sequence (looked up) 1: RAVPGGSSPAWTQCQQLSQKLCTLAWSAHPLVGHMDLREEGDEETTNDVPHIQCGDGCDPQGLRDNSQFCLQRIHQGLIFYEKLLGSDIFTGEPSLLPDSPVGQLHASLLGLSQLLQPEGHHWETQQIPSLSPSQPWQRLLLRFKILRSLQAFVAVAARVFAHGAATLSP
T1 sequence (looked up) 2: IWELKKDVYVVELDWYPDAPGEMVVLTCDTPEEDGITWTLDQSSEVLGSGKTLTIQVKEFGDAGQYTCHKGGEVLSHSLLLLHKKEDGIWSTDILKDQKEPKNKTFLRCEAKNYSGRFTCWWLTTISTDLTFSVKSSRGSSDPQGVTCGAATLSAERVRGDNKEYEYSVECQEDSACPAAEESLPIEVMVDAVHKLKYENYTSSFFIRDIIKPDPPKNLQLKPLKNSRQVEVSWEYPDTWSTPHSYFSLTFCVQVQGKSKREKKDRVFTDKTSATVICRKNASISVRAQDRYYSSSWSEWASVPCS

B1: Hu38-10 (antibody, human IgG1, kappa, L234A L235A, V domains shown)
VH: EFQLVQSGAEVKKPGASVKVSCKASGYSFTDHNMNWVRQAPGQRLEWMGVINPNYGTTTYNQKFKGRVTITVDQSASTAYMELSSLRSEDTAVYYCARRGFAYWGQGTLVTVSS
VL: DIVMTQTPLSLPVTPGEPASISCRSSKSLLYKDGKTYLNWFLQKPGQSPQLLIYLMSTRASGVPDRFSGSGSGTDLTLKISRVEAEDVGVYYCQQIAEYPFTFGSGTKLEIKR
notes: humanized mAb38, IgG1/kappa
B2: Hu38-16 (antibody, human IgG1, kappa, L234A L235A, V domains shown)
VH: EFQLVQSGAEVKKPGASVKVSCKASGYSFTDHNMNWVRQAPGQSLEWMGVINPNYGTTTYNQKFKGRVTITVDQSASTAYMELSSLRSEDTAVYYCARRGFAYWGQGTLVTVSS
VL: DIVMTQTPLSLPVTPGEPASISCRSSKSLLYKDGKTYLNWFLQKPGQSPQLLIYLMQTRASGVPDRFSGSGSGTDLTLKISRVEAEDVGVYYCQQIAEYPFTFGSGTKLEIKR
notes: humanized mAb38, IgG1/kappa
B3: Hu38-6 (antibody, human IgG1, kappa, L234A L235A, V domains shown)
VH: EVQLVQSGAEVKKPGASVKVSCKASGYSFTDHNMNWVRQAPGQRLEWMGVINPNYGTTTYNQKFKGRVTITVDTSASTAYMELSSLRSEDTAVYYCARRGFAYWGQGTLVTVSS
VL: DIVMTQTPLSLPVTPGEPASISCRSSKSLLYKDGKTYLNWFLQKPGQSPQLLIYLMSTRASGVPDRFSGSGSGTDLTLKISRVEAEDVGVYYCQQIAEYPFTFGSGTKLEIKR
notes: humanized mAb38, IgG1/kappa
B4: Hu38-14 (antibody, human IgG1, kappa, L234A L235A, V domains shown)
VH: EFQLVQSGAEVKKPGASVKVSCKASGYSFTDHNMNWVRQAPGQSLEWMGVINPNYGTTTYNQKFKGRVTITVDQSASTAYMELSSLRSEDTAVYYCARRGFAYWGQGTLVTVSS
VL: DIVMTQTPLSLPVTPGEPASISCRSSKSLLYKDGKTYLNWFLQKPGQSPQLLIYLMSTRASGVPDRFSGSGSGTDLTLKISRVEAEDVGVYYCQQIAEYPFTFGSGTKLEIKR
notes: humanized mAb38, IgG1/kappa
B5: Hu38-7 (antibody, human IgG1, kappa, L234A L235A, V domains shown)
VH: EVQLVQSGAEVKKPGASVKVSCKASGYSFTDHNMNWVRQAPGQRLEWMGVINPNYGTTTYNQKFKGRVTITVDTSASTAYMELSSLRSEDTAVYYCARRGFAYWGQGTLVTVSS
VL: DIVITQTPLSLPVTPGEPASISCRSSKSLLYKDGKTYLNWFLQRPGQSPQLLIYLMSTRASGVPDRFSGSGSGTDLTLKISRVEAEDVGVYYCQQIAEYPFTFGSGTKLEIKR
notes: humanized mAb38, IgG1/kappa
B6: Hu38-8 (antibody, human IgG1, kappa, L234A L235A, V domains shown)
VH: EVQLVQSGAEVKKPGASVKVSCKASGYSFTDHNMNWVRQAPGQRLEWMGVINPNYGTTTYNQKFKGRVTITVDTSASTAYMELSSLRSEDTAVYYCARRGFAYWGQGTLVTVSS
VL: DIVMTQTPLSLPVTPGEPASISCRSSKSLLYKDGKTYLNWFLQKPGQSPQLLIYLMQTRASGVPDRFSGSGSGTDLTLKISRVEAEDVGVYYCQQIAEYPFTFGSGTKLEIKR
notes: humanized mAb38, IgG1/kappa
B7: Hu38-1 (antibody, human IgG1, kappa, L234A L235A, V domains shown)
VH: EFQLVQSGAEVKKPGASVKVSCKASGYTFTDHNMNWVRQAPGQRLEWMGVINPNYGTTTYNQKFKGRVTITVDTSASTAYMELSSLRSEDTAVYYCARRGFAYWGQGTLVTVSS
VL: DIVMTQTPLSLPVTPGEPASISCRSSKSLLYKDGKTYLNWYLQKPGQSPQLLIYLMSTRASGVPDRFSGSGSGTDFTLKISRVEAEDVGVYYCQQIAEYPFTFGSGTKLEIKR
notes: humanized mAb38, IgG1/kappa
B8: Hu38-11 (antibody, human IgG1, kappa, L234A L235A, V domains shown)
VH: EFQLVQSGAEVKKPGASVKVSCKASGYSFTDHNMNWVRQAPGQRLEWMGVINPNYGTTTYNQKFKGRVTITVDQSASTAYMELSSLRSEDTAVYYCARRGFAYWGQGTLVTVSS
VL: DIVITQTPLSLPVTPGEPASISCRSSKSLLYKDGKTYLNWFLQRPGQSPQLLIYLMSTRASGVPDRFSGSGSGTDLTLKISRVEAEDVGVYYCQQIAEYPFTFGSGTKLEIKR
notes: humanized mAb38, IgG1/kappa
B9: Hu38-15 (antibody, human IgG1, kappa, L234A L235A, V domains shown)
VH: EFQLVQSGAEVKKPGASVKVSCKASGYSFTDHNMNWVRQAPGQSLEWMGVINPNYGTTTYNQKFKGRVTITVDQSASTAYMELSSLRSEDTAVYYCARRGFAYWGQGTLVTVSS
VL: DIVITQTPLSLPVTPGEPASISCRSSKSLLYKDGKTYLNWFLQRPGQSPQLLIYLMSTRASGVPDRFSGSGSGTDLTLKISRVEAEDVGVYYCQQIAEYPFTFGSGTKLEIKR
notes: humanized mAb38, IgG1/kappa
B10: Hu38-2 (antibody, human IgG1, kappa, L234A L235A, V domains shown)
VH: EFQLVQSGAEVKKPGASVKVSCKASGYTFTDHNMNWVRQAPGQRLEWMGVINPNYGTTTYNQKFKGRVTITVDTSASTAYMELSSLRSEDTAVYYCARRGFAYWGQGTLVTVSS
VL: DIVMTQTPLSLPVTPGEPASISCRSSKSLLYKDGKTYLNWFLQKPGQSPQLLIYLMSTRASGVPDRFSGSGSGTDLTLKISRVEAEDVGVYYCQQIAEYPFTFGSGTKLEIKR
notes: humanized mAb38, IgG1/kappa
B11: Hu38-3 (antibody, human IgG1, kappa, L234A L235A, V domains shown)
VH: EFQLVQSGAEVKKPGASVKVSCKASGYTFTDHNMNWVRQAPGQRLEWMGVINPNYGTTTYNQKFKGRVTITVDTSASTAYMELSSLRSEDTAVYYCARRGFAYWGQGTLVTVSS
VL: DIVITQTPLSLPVTPGEPASISCRSSKSLLYKDGKTYLNWFLQRPGQSPQLLIYLMSTRASGVPDRFSGSGSGTDLTLKISRVEAEDVGVYYCQQIAEYPFTFGSGTKLEIKR
notes: humanized mAb38, IgG1/kappa
B12: Hu38-12 (antibody, human IgG1, kappa, L234A L235A, V domains shown)
VH: EFQLVQSGAEVKKPGASVKVSCKASGYSFTDHNMNWVRQAPGQRLEWMGVINPNYGTTTYNQKFKGRVTITVDQSASTAYMELSSLRSEDTAVYYCARRGFAYWGQGTLVTVSS
VL: DIVMTQTPLSLPVTPGEPASISCRSSKSLLYKDGKTYLNWFLQKPGQSPQLLIYLMQTRASGVPDRFSGSGSGTDLTLKISRVEAEDVGVYYCQQIAEYPFTFGSGTKLEIKR
notes: humanized mAb38, IgG1/kappa
B13: risankizumab (antibody, human IgG1, kappa, L234A L235A, V domains shown)
VH: QVQLVQSGAEVKKPGSSVKVSCKASGYTFTDQTIHWMRQAPGQGLEWIGYIYPRDDSPKYNENFKGKVTITADKSTSTAYMELSSLRSEDTAVYYCAIPDRSGYAWFIYWGQGTLVTVSS
VL: DIQMTQSPSSLSASVGDRVTITCKASRDVAIAVAWYQQKPGKVPKLLIYWASTRHTGVPSRFSGSGSRTDFTLTISSLQPEDVADYFCHQYSSYPFTFGSGTKLEIKR
notes: control anti-IL-23 antibody; also called control molecule

How the values were obtained:
[1] = molecular target: T1, human IL-23 (Sino Biological, …); assay: cell-based or functional assay
[2] = molecular target: T1, human IL-23 (Sino Biological, …); assay: SPR (Biacore), Protein A capture of sample, 1:1 model
Protocol: A certain amount of test sample was subjected to affinity capture by a biosensor chip Protein A (GE, 29127556), and then antigens at a series of concentration gradients were allowed to flow on the surface of the chip. The reaction signals were detected in real time by using Biacore (GE, 8 K) to obtain association and dissociation curves. After the dissociation was completed for each cycle, the biochip was washed and regenerated with a 10 mM glycine-hydrochloric acid solution at pH 1.5 (GE, BR-1003-54). Fitting was performed based on the experimental data using BlAevaluation version 4.1 software with a 1:1 model, and affinity values were obtained.

[3] = molecular target: T1, human IL-23 (Sino Biological, …); assay: competition ELISA, blocks IL-23/IL-23R; IL-23R coated, biotin-IL-23 + sample gradient
Protocol: The specific procedures are as follows:
The receptor protein was diluted to 2 μg/mL with a PBS (BasalMedia, B320) buffer at pH 7.4 and added to a 96-well microplate (Corning, 3590) at 100 μL/well. The plate was incubated at 4° C. overnight. After the liquid was discarded, 1 % Casein blocking solution (Thermo, 37528) was added at 200 μL/well for blocking, and the plate was incubated at 37° C. for 2 h. After the blocking was complete, the blocking solution was discarded, and the plate was washed 3 times with a PBST buffer (pH 7.4 PBS containing 0.1 % tween-20) for later use. After the biotin-labeled ligand protein at a fixed concentration was mixed with an antibody or fusion protein diluted in a gradient, the mixture was pre-incubated at 37° C. for 30 min and then added to the blocked microplate. The plate was incubated at 37° C. for 1.5 h. After the incubation was complete, the plate was washed 3 times with PBST. Streptavidin-HRP (Invitrogen, 434323, diluted at 1:4000) was added at 100 μL/well, and the plate was incubated at 37° C. for 1 h. The supernatant was removed. After the plate was washed 3 times with PBST, TMB chromogenic substrate (KPL, 5120-0077) was added at 100 μL/well, and the plate was incubated at room temperature for 10⁻¹⁵ min. 1 M H₂SO₄ was added at 50 μL/well to terminate the reaction. The absorbance values at 450 nm were taken using a microplate reader. Curves for the inhibition of binding of the ligands to the receptors were fitted using software, and the IC₅₀ values were calculated.

Binder	Activity in inhibiting proliferation of BaF3-IL-23R cells (IC50, nM) [1] [nM]	Kd [2] [nM]	koff [2] [s⁻¹]	kon [2] [M⁻¹ s⁻¹]	IC50 [3] [nM]
B1	0.116	0.197	7.07e-05	358000	
B2	0.146	0.161	5.49e-05	341000	
B3	0.136	0.143	3.91e-05	273000	
B4	0.152	0.175	5.45e-05	312000	
B5	0.179	0.152	7.41e-05	486000	
B6	0.174	0.168	4.75e-05	282000	
B7	0.168	0.206	4.56e-05	222000	
B8	0.168	0.176	6.15e-05	349000	
B9	0.149	0.168	8.3e-05	494000	
B10	0.138	0.18	6.05e-05	337000	0.465
B11	0.174	0.113	4.44e-05	393000	
B12	0.184	0.191	6.12e-05	321000	
B13		0.0651	4.91e-05	754000	0.61
